In PMC8748919, “Dynamics and mechanism of dimer dissociation of photoreceptor UVR8” (Nature Communications, 2022):
Substitutions are numbered along the chain they refer to. Names may count otherwise.

B1: UVR8 W250 single-Trp mutant (receptor, Arabidopsis thaliana, UniProt Q9FN03 1-440, looked up)
chain: MAEDMAADEVTAPPRKVLIISAGASHSVALLSGDIVCSWGRGEDGQLGHGDAEDRPSPTQLSALDGHQIVSVTCGADHTVAYSQSGMEVYSWGWGDFGRLGHGNSSDLFTPLPIKALHGIRIKQIACGDSHCLAVTMEGEVQSWGRNQNGQLGLGDTEDSLVPQKIQAFEGIRIKMVAAGAEHTAAVTEDGDLYGWGWGRYGNLGLGDRTDRLVPERVTSTGGEKMSMVACGWRHTISVSYSGALYTYGFSKYGQLGHGDLEDHLIPHKLEALSNSFISQISGGWRHTMALTSDGKLYGWGWNKFGQVGVGNNLDQCSPVQVRFPDDQKVVQVSCGWRHTLAVTERNNVFAWGRGTNGQLGIGESVDRNFPKIIEALSVDGASGQHIESSNIDPSSGKSWVSPAERYAVVPDETGLTDGSSKGNGGDISVPQTDVKRVRI
notes: UVR8, Arabidopsis thaliana; mutant plasmid built on the wild-type plasmid; also called W250F; source: E. coli BL21-DE3, purified (Ni-Sepharose, Source-15Q)
B2: UVR8 W94F (receptor, Arabidopsis thaliana, UniProt Q9FN03 1-440, looked up)
chain: B1 chain with W94F, F250W
notes: UVR8, Arabidopsis thaliana; mutant plasmid built on the wild-type plasmid; source: E. coli BL21-DE3, purified (Ni-Sepharose, Source-15Q)
B3: UVR8 W285D/W233K (receptor, Arabidopsis thaliana, UniProt Q9FN03 1-440, looked up)
chain: B1 chain with W233K, F250W, W285D
notes: as for B2
B4: UVR8 W285/233/94/337G (receptor, Arabidopsis thaliana, UniProt Q9FN03 1-440, looked up)
chain: B1 chain with W94G, W233G, F250W, W285G, W337G
notes: as for B2
B5: UVR8 W94/337F (receptor, Arabidopsis thaliana, UniProt Q9FN03 1-440, looked up)
chain: B1 chain with W94F, F250W, W337F
notes: as for B2
B6: UVR8 R234 mutated to neutral (Q) (receptor, Arabidopsis thaliana, UniProt Q9FN03 1-440, looked up)
chain: B1 chain with R234Q, F250W
notes: UVR8, Arabidopsis thaliana; mutant plasmid built on the wild-type plasmid; also called R234Q; source: E. coli BL21-DE3, purified (Ni-Sepharose, Source-15Q)
B7: UVR8 W39 single-Trp mutant (receptor, Arabidopsis thaliana, UniProt Q9FN03 1-440, looked up)
chain: B1 chain with W39F, F250W
notes: UVR8, Arabidopsis thaliana; mutant plasmid built on the wild-type plasmid; also called W39F; source: E. coli BL21-DE3, purified (Ni-Sepharose, Source-15Q)
B8: UVR8 R338 mutated to lysine (K) (receptor, Arabidopsis thaliana, UniProt Q9FN03 1-440, looked up)
chain: B1 chain with F250W, R338K
notes: UVR8, Arabidopsis thaliana; mutant plasmid built on the wild-type plasmid; also called R338K; source: E. coli BL21-DE3, purified (Ni-Sepharose, Source-15Q)
B9: UVR8 W198 single-Trp mutant (receptor, Arabidopsis thaliana, UniProt Q9FN03 1-440, looked up)
chain: B1 chain with W198F, F250W
notes: UVR8, Arabidopsis thaliana; mutant plasmid built on the wild-type plasmid; also called W198F; source: E. coli BL21-DE3, purified (Ni-Sepharose, Source-15Q)
B10: UVR8 W302 single-Trp mutant (receptor, Arabidopsis thaliana, UniProt Q9FN03 1-440, looked up)
chain: B1 chain with F250W, W302F
notes: UVR8, Arabidopsis thaliana; mutant plasmid built on the wild-type plasmid; also called W302F; source: E. coli BL21-DE3, purified (Ni-Sepharose, Source-15Q)
B11: UVR8 D129 mutated to neutral (N) (receptor, Arabidopsis thaliana, UniProt Q9FN03 1-440, looked up)
chain: B1 chain with D129N, F250W
notes: UVR8, Arabidopsis thaliana; mutant plasmid built on the wild-type plasmid; also called D129N; source: E. coli BL21-DE3, purified (Ni-Sepharose, Source-15Q)
B12: UVR8 D129 mutated to positive (K) (receptor, Arabidopsis thaliana, UniProt Q9FN03 1-440, looked up)
chain: B1 chain with D129K, F250W
notes: UVR8, Arabidopsis thaliana; mutant plasmid built on the wild-type plasmid; also called D129K; source: E. coli BL21-DE3, purified (Ni-Sepharose, Source-15Q)
B13: UVR8 W337F (receptor, Arabidopsis thaliana, UniProt Q9FN03 1-440, looked up)
chain: B1 chain with F250W, W337F
notes: as for B2
B14: UVR8 W300 single-Trp mutant (receptor, Arabidopsis thaliana, UniProt Q9FN03 1-440, looked up)
chain: B1 chain with F250W, W300F
notes: UVR8, Arabidopsis thaliana; mutant plasmid built on the wild-type plasmid; also called W300F; source: E. coli BL21-DE3, purified (Ni-Sepharose, Source-15Q)
B15: UVR8 R286 mutated to lysine (K) (receptor, Arabidopsis thaliana, UniProt Q9FN03 1-440, looked up)
chain: B1 chain with F250W, R286K
notes: UVR8, Arabidopsis thaliana; mutant plasmid built on the wild-type plasmid; also called R286K; source: E. coli BL21-DE3, purified (Ni-Sepharose, Source-15Q)
B16: UVR8 W285K/W233D (receptor, Arabidopsis thaliana, UniProt Q9FN03 1-440, looked up)
chain: B1 chain with W233D, F250W, W285K
notes: as for B2
B17: UVR8 W196 single-Trp mutant (receptor, Arabidopsis thaliana, UniProt Q9FN03 1-440, looked up)
chain: B1 chain with W196F, F250W
notes: UVR8, Arabidopsis thaliana; mutant plasmid built on the wild-type plasmid; also called W196F; source: E. coli BL21-DE3, purified (Ni-Sepharose, Source-15Q)
B18: UVR8 W92 single-Trp mutant (receptor, Arabidopsis thaliana, UniProt Q9FN03 1-440, looked up)
chain: B1 chain with W92F, F250W
notes: UVR8, Arabidopsis thaliana; mutant plasmid built on the wild-type plasmid; also called W92F; source: E. coli BL21-DE3, purified (Ni-Sepharose, Source-15Q)
B19: UVR8 W144 single-Trp mutant (receptor, Arabidopsis thaliana, UniProt Q9FN03 1-440, looked up)
chain: B1 chain with W144F, F250W
notes: UVR8, Arabidopsis thaliana; mutant plasmid built on the wild-type plasmid; also called W144F; source: E. coli BL21-DE3, purified (Ni-Sepharose, Source-15Q)

Molecular target: the molecule itself
Assay: SEC; dimer/monomer state of the purified protein before UV irradiation; 150 mM NaCl, 25 mM Tris-HCl, pH 8.0

Binding result, binds:
B1, B2, B3, B4, B5, B6, B7, B8, B9, B10, B11, B12, B13, B14, B15, B16, B17, B18, B19
